B1: Aprataxin and PNK-like factor (Homo sapiens), Q8IW19 (parent)
chain: MSGGFELQPRDGGPRVALAPGETVIGRGPLLGITDKRVSRRHAILEVAGGQLRIKPIHTNPCFYQSSEKSQLLPLKPNLWCYLNPGDSFSLLVDKYIFRILSIPSEVEMQCTLRNSQVLDEDNILNETPKSPVINLPHETTGASQLEGSTEIAKTQMTPTNSVSFLGENRDCNKQQPILAERKRILPTWMLAEHLSDQNLSVPAISGGNVIQGSGKEEICKDKSQLNTTQQGRRQLISSGSSENTSAEQDTGEECKNTDQEESTISSKEMPQSFSAITLSNTEMNNIKTNAQRNKLPIEELGKVSKHKIATKRTPHKEDEAMSCSENCSSAQGDSLQDESQGSHSESSSNPSNPETLHAKATDSVLQGSEGNKVKRTSCMYGANCYRKNPVHFQHFSHPGDSDYGGVQIVGQDETDDRPECPYGPSCYRKNPQHKIEYRHNTLPVRNVLDEDNDNVGQPNEYDLNDSFLDDEEEDYEPTDEDSDWEPGKEDEEKEDVEELLKEAKRFMKRK

Variants of: B1
Settings: with xrcc5_human XRCC5, P13010
Chain of xrcc5_human XRCC5, P13010 (P13010 whole entry): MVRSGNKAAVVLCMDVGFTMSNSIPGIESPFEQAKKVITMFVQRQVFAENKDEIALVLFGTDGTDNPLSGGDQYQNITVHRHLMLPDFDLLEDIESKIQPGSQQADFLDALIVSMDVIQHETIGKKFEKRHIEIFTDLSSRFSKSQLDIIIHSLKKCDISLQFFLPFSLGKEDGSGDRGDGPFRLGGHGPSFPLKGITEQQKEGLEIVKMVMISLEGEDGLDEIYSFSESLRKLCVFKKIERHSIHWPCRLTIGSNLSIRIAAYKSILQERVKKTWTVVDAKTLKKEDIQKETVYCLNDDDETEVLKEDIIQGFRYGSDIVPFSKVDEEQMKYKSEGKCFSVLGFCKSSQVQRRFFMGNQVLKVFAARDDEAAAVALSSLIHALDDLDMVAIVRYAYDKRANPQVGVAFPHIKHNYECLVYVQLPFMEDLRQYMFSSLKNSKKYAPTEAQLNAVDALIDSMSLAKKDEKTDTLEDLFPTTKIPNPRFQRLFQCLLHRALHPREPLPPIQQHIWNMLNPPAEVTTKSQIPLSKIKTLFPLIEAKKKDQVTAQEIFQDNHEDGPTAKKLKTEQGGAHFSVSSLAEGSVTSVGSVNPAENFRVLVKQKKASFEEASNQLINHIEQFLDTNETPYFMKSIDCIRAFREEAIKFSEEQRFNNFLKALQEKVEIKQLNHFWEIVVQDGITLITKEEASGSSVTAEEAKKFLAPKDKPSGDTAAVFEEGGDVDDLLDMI

| effect of a mutation on the interaction | Variant |
| --- | --- |
| disrupting interaction | W189G |
